This is an account of results in the domain aggregation screens of Martell et al. (2025).

This data set in a line: soluble fraction after stress (log2 fold change); higher = more stays soluble; pooled small domains, quantitative proteomics. Particulars: stress: pH 4. Summed up:
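Values are log2 fold changes, and higher ones mean more of the domain stayed soluble. Each fold change reflects the soluble amount of a domain after acid stress and is taken as a measure of aggregation propensity. The stress was pH 4, applied to pooled custom libraries of small protein domains analysed by high-throughput quantitative proteomics.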
Consider “HMELEDTYTKNLDASLARLDEYQASKGLTDEQVDEVINSLIADAENIIMGVFTPELIDSKLKAMNYDQDV”, for which the “soluble fraction (log2)” value is -0.17.

For “HMELEFLTEKQKEALILAVNRGYYDVDSEVTLKRLADELGIARSTYGEHLKRAESEALKMVVSDLLRD”, the “soluble fraction (log2)” value was -1.03.

As for “HMELEIPGELIEAVRRLRDERQRMRLAGELAARQIQMHPERYTEASIDPVQTWDELRARILALA”, the “soluble fraction (log2)” value was -0.582.

On to “HMELLSGTVEKVLTSGVLVKLPGGAIGFIPNSEMGTPRGTNHGKMFPAGTPLQVMVVEVNQDRGRITLSR”, for which the “soluble fraction (log2)” value is -0.389.

For the sequence “HMELLTNPLTGREVEVLTLMALGQTNHEIARQLYLATGTVKAHTSSIYRKLDVANRTEAVARARQLGIL”, the “soluble fraction (log2)” value was -0.448.

As to “HMELLTYREMDVLNLLDQRLTNKEIAHALGISTETVRQHTVNLFRKLNVDNRRQAIVVARSLGYIGTPT”, the “soluble fraction (log2)” value was -0.894.

For “HMELNESVLKALYEKFREMSGSKGFITEDEVIIQLEKENPDITPDQQAEIFKYLYDTPLQIY”, the “soluble fraction (log2)” value was -0.996.

As for “HMELNFEGFYRFVRDELNVDLNAYKEKQLKRRIATVMKSSGALTLEDYSRLIANDEVIRNKFLDYITI”, the “soluble fraction (log2)” value is -0.894.

In the case of “HMELPMGTQLPPERELAQQMQVSRAVVNGGLAELAQQGFLEVRPRQGTFVADYRRKGNLSTLIAIMEY”, the “soluble fraction (log2)” value worked out at 0.22.

On to “HMELPPLQPGQPIDGRVEQQIRAGYYVVSVRGRGYEFQLPESARPGDLLRMVYLNDHPRLTFALLRIDNAN”, for which the “soluble fraction (log2)” value was -0.546.

Consider “HMELPVAVPHTELSPEALRGVVESFVLREGTDYGERDVPFEAKVAQVIRQLERGEARIMFDPVTQSVQIVT”, for which the “soluble fraction (log2)” value was -0.411.

As for “HMELRSPMPGLIIEIPVSKGDIIKKDQSLIILEAMKMENVLTSPINGKIADIKVNVQDTVEKNNLLITFEN”, the “soluble fraction (log2)” value is -1.23.

As for “HMELSESLENYLVVIYEAHLRNEIARIKDMTASLSVKHTSAIDAIKKLEDLGIVNYEKRGFVKLTQSGIEK”, the “soluble fraction (log2)” value is -0.177.

In the case of “HMELSPAELGERLKVARETANVTQDAGAKAAGIARTTLVAIEKGQRSARIDELQTLSRRYGVSVNSLLRR”, the “soluble fraction (log2)” value stood at 0.096.

Turning to “HMELSSRQAMIVDIVRKYEPITSEQIADKLNLTRSALRPDLAVLTMIGILEARPRVGYFFTGK”, the “soluble fraction (log2)” value was -0.269.

With “HMELSTQERIQILLEILNQREIISFSQTLRKKEGKKGVVVTFLASLELAKDGYVTLVQNKSDQIYLRSN”, the “soluble fraction (log2)” value was -0.428.

Consider “HMELTDSLTENAKKLYSVLTTEPRHIDDLSEEAKLSSADTLAALTELELYSLVALSEGKHYYK”, for which the “soluble fraction (log2)” value is -1.05.

For “HMELTKAELEVMQILWKLKKAFVGDILDRMVEPKPAYNTVSTVVRLLEKKGVVGHESFGKSHRYYPL”, the “soluble fraction (log2)” value is -0.0549.

“HMELTVPDFTNMSLEDAINLAEKRDVRLEVTDSVFVKRLGRGFIYSQNPVAGSKVKKGRRILITINAIN”: the “soluble fraction (log2)” value is 0.113.

Consider “HMEMDPKELGRQVLAKRKEKGWSQEQLGKMAEISRNYVSQIERGEADSISIKIINRLAIALGVSPSDLGE”, for which the “soluble fraction (log2)” value was found to be 0.21.

Regarding “HMEMKHKNSQIFQAIKLKHMGFTPTQISEELRVSRTTINHWLTKAQLKDVKWEDIRENSADELVKLLFG”, the “soluble fraction (log2)” value is -0.322.

Consider “HMEMNPLDIQNKAAELAQQWLQLPVGERQKQMAAVRTSNPNLHAMAKQKMEEMRSQAESQGRQSLSQP”, for which the “soluble fraction (log2)” value was -0.0586.

For “HMEMTDKEEELMRIFWNHGPMFVREIVELYPEPRPHFNTLSTFVRNLEQKGFVSHEAVGGSFRYYAV”, the “soluble fraction (log2)” value was -1.44.

“HMEMTEDEITKQFDAMEREAKKEIDTGADKRAFMYGVSRTAAGMAGKNPKYARFITDKAKEVIENIAKYK”: the “soluble fraction (log2)” value stood at 0.207.

Regarding “HMENAEALLKKLSGVLSDYEYKMLMLYADGKTPRRIAQETGQSAKSVSNALFRARTKLKELYEDQ”, the “soluble fraction (log2)” value was -0.455.

Take “HMENEIVMPVQINGKKRGDLTIARDADQASIQKAVLELDFVKAALNGGSPKKVIVVPQRIVNVV”: the “soluble fraction (log2)” value is 0.127.

Turning to “HMENFKVFMKAVQEVSPVPVRFDEISSGAKGYYSNTEKEIVIQNGMSESQTMKTGIHEVTHAMLHDRDF”, the “soluble fraction (log2)” value was determined as 0.22.

“HMENFYGYEIINPEAKKFFITMGVNRYALEQWIKNKSEYGLIIVKSLYPFDPRLKLFLEKNRERIQNLIF”: the “soluble fraction (log2)” value was -0.305.

With “HMENKLIELTLSLDKSERLDKILTQELSHTRSVIQQWLKSGFVSVNGEIVKANYKAKDGDHVTIQIE”, the “soluble fraction (log2)” value was -0.379.

In the case of “HMENKTGEVTVREDSALTLRQGPGTNYEKVGQAYRGDRVDVLEEQNGWYKVKTYDGKEAWASSSYISIV”, the “soluble fraction (log2)” value is -0.0485.

As to “HMENMETSDIVARYSNMPGGIIEAFHEIVDRHGFLSQEAIIEAARGFGISVAEAYGVATFYSMFS”, the “soluble fraction (log2)” value is -0.42.

For the sequence “HMENMRLILASNLRRIREERRLSLNKVSELTGVSKSMLGQIERGESNPTLQTVWKIANGLRVSLTDLTEVP”, the “soluble fraction (log2)” value was 0.252.

Regarding “HMENRILLSEDSLKHLAQDIPIDIIEKLSVLKDQIYHRYDDFNSIVQGLLGGENYLKYKDNILSFVEQ”, the “soluble fraction (log2)” value is -0.311.

With “HMENSMDTDWDVSGVDPSQYRLLFSTLGAIAGVKDVGLNPDGLKIIHTPEALPAIKQAFDANNLKLKMRTN”, the “soluble fraction (log2)” value was -0.251.

As for “HMENSPLTHREAEVMRLMSEGKSNRAISEHLVISEKTVKNHVSSILQKMSVDDRTQAVLQAIKNGWVD”, the “soluble fraction (log2)” value was found to be 0.142.

Consider “HMENTGFKDKKGNYIFDGDIVKDILGNIMKVEFKHFKWQLIPLNKTAFNMPMVDWLDLETETLNAEIIGN”, for which the “soluble fraction (log2)” value was -1.69.

On to “HMENTIESLLKAKGFNDIIVTVSDKQVDVVVSDKEIADNKRAQIEDVIKRKTGLEASAITITPA”, for which the “soluble fraction (log2)” value is -0.332.

With “HMENVLFVNVLSMTVRELAEMMKIPVNKIIQDSFSKGIMMNPNQRLEYDNFAELAKKYGITVKI”, the “soluble fraction (log2)” value was -0.691.

For the sequence “HMENVMLRNFAIQATEAGVIKLLEDQRTFVWGSNNKKFMTVPFDEHPYSAMAAFFKTDEGLEIYKSIEKKF”, the “soluble fraction (log2)” value is -1.43.

In the case of “HMENYQIETFVKFIEESTGEDGVAFEDLFQNFTSRPAVITMFLALLEALRRNSIRIFQKEEFSQILIYPK”, the “soluble fraction (log2)” value is -1.21.

For the sequence “HMENYTYKYATSANVNIREEPNTDSTILGKTLLNTEFQVVEDVDGWSKITTEAGYAYIKSEYLSDTE”, the “soluble fraction (log2)” value was -0.392.

On to “HMEPDEQAVKALIAEIDKLSKEKLTLKHEKKLKELREIYDDFTEEEKKLVTNYDILVKMEKRMEVLKKQEG”, for which the “soluble fraction (log2)” value was 0.19.

Consider “HMEPDEYTVRQAFMKFDVGGEGRVPRDKLKALLETLGLELSAQQVRESEEQLDPEGTGFTSYGDFLMWWN”, for which the “soluble fraction (log2)” value was -1.33.

Consider “HMEPEVSNTYEKVLGMHHFSSTRSHQLHDLVRQANALELSLGEIESIAQSAKDGAQVISDIKHWMEPNRQ”, for which the “soluble fraction (log2)” value is -0.185.

Turning to “HMEPEWVINTDGSNLNEILAIDEVDSRKTFSNDLQEVYRTFGIEAARQILVQEIDAVIESSGA”, the “soluble fraction (log2)” value is -0.675.

“HMEPFEQLLDRITSQTGKEPEEVVARMNELITERFDGNIRPEAALVIVAKRDNIQFMDLLDQLKQALL”: the “soluble fraction (log2)” value is -0.907.

Take “HMEPIAFDNMHNRGIKGTNDWTQYEITLPFSAEAKKIFVAGLLVGKGKAWFDKFEVFLDGKNITDVAQI”: the “soluble fraction (log2)” value was -0.0075.

On to “HMEPPPSYSALLKQISSGKVKELQLVPARREVIVTYPDGRSATVAILANDQQILRTAEAAGTPLLVK”, for which the “soluble fraction (log2)” value was determined as 0.326.

With “HMEPQLVKSFDVQTELTYDQFLSKYPESHTLGRLLVQPEPIPFEPYKNIPGITPEKLLALHAKHLEAR”, the “soluble fraction (log2)” value was -0.169.

Regarding “HMEPQSRTAYRLIEAMIVTHELPPGSRISEASLSAKLGIGRTPIREALQRLSFEGTVKIVPRSGAFVSEI”, the “soluble fraction (log2)” value is 0.183.

For the sequence “HMEPREALDGLISERGETYASISRLLGRNSAYIQQFIKRGSPARLDQSDIALLALHFDVPVEMLGGKE”, the “soluble fraction (log2)” value came to 0.054.

As to “HMEPTIGTATVTSGSRLNMRSAKSTSASVVTRIPSGATVGVISYASDWSKVTYNGYTGYVSSPYISMNG”, the “soluble fraction (log2)” value is -0.108.

Consider “HMEPVIELGDRTLPIEITRHRRARRLTLRLAADGSAVRITLPHWARSAEATAFAHARRDWLAAQLAK”, for which the “soluble fraction (log2)” value turned out to be 0.108.

Regarding “HMEPVTETVYAMDTVNIRAAADQTSEKIGSVTVGTALTRTGTDGDWSIIDYNGTTGYVKSEFLSNTAPEV”, the “soluble fraction (log2)” value is -0.22.

“HMEQLIIQEELSGKRLDQLVSLLFPSLTRAHAQKLIKEGAVLVNEKPRKPAYAVMTGELLTVELPEPE”: the “soluble fraction (log2)” value is -0.755.

On to “HMEQNHYEVLGVSRDAIPEEIRKAYFEYARKLHPDANPDPGAAEQFMRIQTAYDVLSNPDRRHEYDGLLPP”, for which the “soluble fraction (log2)” value was -0.249.

Consider “HMEQRREEFILLAKELLEKELRKQNLEVHENLKPDVLNDVAKRLGMVSMDDLLAAVGDGKITPGTVVSKIV”, for which the “soluble fraction (log2)” value is -0.389.

As to “HMEQVLNVAVRRGELIMSSAAEQTVRIYSSAGSMVWQGKVSASDVTVELPSGVYVVNGKKVV”, the “soluble fraction (log2)” value is -0.513.

Take “HMEQYFEDEELNDKFLEFLAMRKRVRKPVQTDRGMKMLLTSLHKLSGGDVGLMKQIIDQSLDNEWKKFVA”: the “soluble fraction (log2)” value is -1.12.

As to “HMERDIATKHEVNRTVEAYSDIVKTLNLPSHKINLVEISFFNILKRSKPSPRENSILLGLAQKIKLHLEKK”, the “soluble fraction (log2)” value is -0.473.

For “HMERLKYSQVVDLFKGEQVKSFVLDESNQLKMELQDGSTVSYKLRSFEQFYLDLSDTVKEQKESGIITDYD”, the “soluble fraction (log2)” value is -1.72.

For the sequence “HMERPPHELLSDREYQTMVMIASGRTLTQIAEEMSLSPKTVSVYRARLLEKMKLKNNAELTHYALKHKLV”, the “soluble fraction (log2)” value was -0.2.

Turning to “HMERPSLDQVLAHAKALGIAPARFVAYADGRWGTGWRLSPHGRARAWEELDRHRNDPLGYRDKLDVALQSG”, the “soluble fraction (log2)” value came out at 0.181.

On to “HMESAQLIINVAGKVSNPGVYQLPQGSRVVDAIEAAGKQLKGVDISDINLARVLVDGEQILVGGV”, for which the “soluble fraction (log2)” value is -1.35.

“HMESAVDVFRSILKEKGVTEEEVRQVVAARGKYTLETPIDDYPNEFLYGYVIRYWDQIFDIIQQSREAK”: the “soluble fraction (log2)” value is -1.57.

Consider “HMESEAKLGVAFNGKTRFDMTFPADADNKTIEEAVLADERAQKYLEGFQVAKVIIVPKRMVNIVLK”, for which the “soluble fraction (log2)” value was at least 0.43.

Take “HMESEIYKKIEKSRLLELAFTKSQKGDLTGAYDLYYQAFTKYDVIADNQNRYFEDFISLIRRKQQQD”: the “soluble fraction (log2)” value was -0.822.

As for “HMESGLPLPRFVSLGADEVNLRTGPGLRYPVAWVFVRKALPVEIVAEFEQWRRVRDFEGAEGWVHKAML”, the “soluble fraction (log2)” value was -0.527.
